How the values were obtained:
[1] = tested on: O=P(O)(O)OC[C@@H](O)[C@@H](O)[C@H](O)[C@H](O)CO; assay: purified protein; conditions: NAD+ active site; phosphate moiety at Arg287 and Arg294 (docking, supported by mutants)
[2] = tested on: O=C(CO)[C@@H](O)[C@H](O)[C@H](O)COP(=O)(O)O; assay: purified protein; conditions: NADH active site; phosphate moiety at Arg287 and Arg294 (docking, supported by mutants)
[3] = target: T1, mannitol-1-phosphate dehydrogenase (SaM1PDH) (Staphylococcus aureus, UniProt Q2FEX4); assay: F6P reductase activity, NADH absorbance, Lineweaver-Burk kinetics; assay type: biochemical
T1 construct: gene mtlD

Row | Compound | Km [1] | Km [2] | Ki [3]
1 | mannitol-1-phosphate dehydrogenase (SaM1PDH) (Staphylococcus aureus subsp. aureus USA300) | 188 µM | 88.6 µM | –
2 | Cc1c(O)c(O)cc2c1CC=C1[C@@]2(C)CC[C@@]2(C)[C@@H]3C[C@](C)(C(=O)O)CC[C@]3(C)CC[C@]12C [DHCL, dihydrocelastrol] | – | – | 4 µM
